In patent CN117616043A (BIOGIC DESIGN LTD, dated 2024):

Legend:
[1] = target: 重组人IL-13 (rh-IL-13) (human, UniProt P35225 35-146); assay: cell-based or functional assay
[2] = target: hTSLP-His (human, UniProt Q969D9 29-159, limits assumed); assay: cell-based or functional assay
[3] = target: T1, 人TSLP (hTSLP) (human, UniProt Q969D9 29-159); assay: SPR and ELISA, conclusion of Example 3
T1 construct: also called rhTSLP

Sequence of 重组人IL-13 (rh-IL-13) (P35225 35-146 limits assumed): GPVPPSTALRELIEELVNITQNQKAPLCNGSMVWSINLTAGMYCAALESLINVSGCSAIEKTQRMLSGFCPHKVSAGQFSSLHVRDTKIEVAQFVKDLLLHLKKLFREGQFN

Binder	IC50 (IL-13信号传导级联抑制, HEK-Blue IL-4/IL-13, SEAP) [1] [pM]	IC50 (MUTZ-5细胞pSTAT5抑制) [2] [pM]	also measured
BDG33.023 (antibody, V domains shown) VH: QMQLVESGGGVVQPGRSLRLSCAASGFAFRTYGMHWVRQAPGKGLEWVAVIWYDGSNTHYADSVKGRFTITRDNSKNTLNLQMNSLRAEDTAVYYCARAPQWYLSAEAFDLWGQGTMVTVSS VL: SYVLTQPPSVSVAPGQTARITCGGNLIGSKLVHWYQQKPGQAPVLVVYDDSDRPSRIPERFSGSNSGNTATLTISRVEAGDEADYYCQVWDHSSDHVVFGGGTKLTVL	1300	–	IC50 (MUTZ5细胞中TSLP依赖性pSTAT5活化的抑制) [2]: 13 pM
BDG33.003 (antibody, V domains shown, also called BGD33.003; 克隆C2) VH: QMQLVESGGGVVQPGRSLRLSCAASGFTFRTYGMHWVRQAPGKGLEWVAVIWYDGSNKHYADSVKGRFTITRDNSKNTLNLQMNSLRAEDTAVYYCARAPQWELTAEAFDIWGQGTMVTVSS VL: SYVLTQPPSVSVAPGQTARITCGGNLIGSKLVHWYQQKPGQAPVLVVYDDSDRPSLIPERFSGSNSGNTATLTISRVEAGDEADYYCQVWDSSSDGVVFGGGTKLTVL	–	–	binding result [3]: binds
BDG38.079 (antibody, V domains shown) VH: QMQLVESGGGVVQPGRSLRLSCAASGFAFRTYGMHWVRQAPGKGLEWVAVIWYDGSNTHYADSVKGRFTITRDNSKNTLNLQMNSLRAEDTAVYYCVRAPQWYLTAEAFDLWGQGTMVTVSS VL: SYVLTQPPSVSVAPGETATITCGGNMIGGYLVHWYQQKPGQAPLLVIYDDVDRPDRIPERFSGSNSGNTATLTISRVEAGDEADYYCQVWDHDSNTMVFGGGTKLTVL	–	~13	–
BDG33.025 (antibody, V domains shown) VH: QMQLVESGGGVVQPGRSLRLSCAASGFTFRTYGMHWVRQAPGKGLEWVADIWYDGSNKHYADSVKGRFTITRDNSKNTLNLQMNSLRAEDTAVYYCARAPQWYLVAEPFDLWGQGTMVTVSS VL: SYVLTQPPSVSVAPGQTARITCGGNLIGSKLVHWYQQKPGQAPVLVVYDDSDRPSLIPERFSGSNSGNTATLTISRVEAGDEADYYCQVWDSSSDGVVFGGGTKLTVL	25000	–	–
BDG38.074 (antibody, V domains shown) VH: QMQLVESGGGVVQPGRSLRLSCAASGFAFRTYGMHWVRQAPGKGLEWVAVIWDDGSNTHYADSVKGRFTITRDNSKNTLNLQMNSLRAEDTAVYYCVRAPQWYLTAEAFDLWGQGTMVTVSS VL: SYVLTQPPSVSVAPGQTATITCGGNMIGAYLVHWYQQKPGQAPLLVVYDDVDRPNRIPERFSGSNSGNTATLTISRVEAGDEADYYCQVWDHNTDKMVFGGGTKLTVL	–	~35	–
